Reference: article doi:10.1101/2021.10.21.465316 (bioRxiv, 2021)

B1: dehydrodolichyl diphosphate synthase (DHDDS), residues 1-333 (enzyme)
chain: MSWIKEGELSLWERFCANIIKAGPMPKHIAFIMDGNRRYAKKCQVERQEGHSQGFNKLAETLRWCLNLGILEVTVYAFSIENFKRSKSEVDGLMDLARQKFSRLMEEKEKLQKHGVCIRVLGDLHLLPLDLQELIAQAVQATKNYNKCFLNVCFAYTSRHEISNAVREMAWGVEQGLLDPSDISESLLDKCLYTNRSPHPDILIRTSGEVRLSDFLLWQTSHSCLVFQPVLWPEYTFWNLFEAILQFQMNHSVLQKARDMYAEERKRQQLERDQATVTEQLLREGLQASGDAQLRRTRLHKLSARREERVQGFLQALELKRADWLARLGTASA

Key:
[1] = molecular target: B1; assay: crystal structure
crystal structure = molecular target: the molecule itself; assay: crystal structure

binding result [1]	Binder	binding result (crystal structure)
binds	Nogo B-receptor (NgBR) pseudo cis-prenyltransferase domain, residues 73-293, lacking residues 167-175 (domain or fragment) RGGSCLAAAHHRMRWRADGRSLEKLPVHMGLVITEVEQEPSFSDIASLVVWCMAVGISYISVYDHQGIFKRNNSRLMDEILKQQQELLGLDCSKDKDDQVLNCHLAVKVLSPEDGKADIVRAAQDFCQLVAQKQKRPTDLDVDTLASLLSSNGCPDPDLVLKFGPVDSTLGFLPWHIRLTEIVSLPSHLNISYEDFFSALRQYAACEQRLGK	
	B1	binds
